Data set [1] has as its target Drc(Δ67–99) (Pseudomonas virus LUZ7). As to the kind of experiment: SEC.
For data set [2], the target named is Drc (ssDNA-binding RNA Polymerase Cofactor), Pseudomonas virus LUZ7 gp14 (Pseudomonas virus LUZ7). As to the kind of experiment: crystal structure.
The target in data set [3] is T1, Drc (gp14) (Pseudomonas phage LUZ7, UniProt C8ZKB3).
T1 sequence: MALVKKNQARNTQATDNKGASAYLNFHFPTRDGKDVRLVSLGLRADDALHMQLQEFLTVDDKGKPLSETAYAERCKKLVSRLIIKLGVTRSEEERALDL
As to the kind of experiment: EMSA.

Data set [4] deals with T1, Drc (gp14). As to the kind of experiment: EMSA. The source holds these as a separate data set.

Where two headings read alike, the source gives them in different places.

On to Drc(Δ67–99) (domain or fragment), for which the stoichiometry N in data set [1] is 2. The molecule “Drc (ssDNA-binding RNA Polymerase Cofactor), Pseudomonas virus LUZ7 gp14 (natural protein)” showed a stoichiometry N in data set [2] of 2.

For TGAGTTTTTTTCATTTTTTGCGTAAATTTC (ssDNA) [30-nt ssDNA], the binding result with Drc (gp14) [3] is “binds”.

B1: internally melted duplex (dsDNA)
DNA 1: GGGCGGCGGTTTTTTTTTTGCGGGGCGG
DNA 2: CCGCCCCGCTTTTTTTTTTCCGCCGCCC
Consider B1, for which the binding result with Drc (gp14) [4] is given as “binds”.

(Values after paper PMC7145618.)
